Experimental data from patent US20260008840A1 (ALZPATH, published 2026).

What was measured:
Bio-pt655 (phospho T217) = assay: indirect ELISA: biotinylated peptide on streptavidin plate, antibody titrated, peroxidase tracer antibody, TMB, OD450-630nm; panel 'Bio-pt655 (phospho T217)'
Procedure: Tau antibodies described herein that detect phosphorylated Tau were tested in ELISA assays. […] Briefly, streptavidin beads were bound to a plate and biotinylated peptide was added to the plates under conditions allowing for biotin-streptavidin binding. […] This was the target peptide. After binding of the synthetic peptide to the plate by the formation of the biotin-streptavidin complex, Tau antibodies were added to the plates under conditions allowing for antibody-target peptide binding. […] After binding, plates were washed to remove any unbound tracer antibody and plates next had TMB ELISA Peroxidase chromogenic substrate (3, 3′, 5, 5′-Tetramethylbenzidine) added to visualize antibody reactivity in indirect ELISA experiments. Antibody sample binding was quantitated using an ELISA microplate reader.
PT3 corresponds to a mouse anti-phospho (T212/T217) Tau selective antibody (Janssen Biotech Inc.). 30H10L2 corresponds to Antibody 2 described herein. 71H1L2 corresponds to Antibody 6 described herein. 62H10L7 corresponds to Antibody 5 described herein.

Adx-pt655 = assay: capture ELISA: 30H10L2 bound to the plate, biotinylated peptide titrated (the concentration is that of Adx-pt655), streptavidin-peroxidase, TMB, OD450-630nm
Description: In FIG. 25, a diagram of an assay using Antibody 2 to detect capture of particular Tau peptides is depicted. In this assay, Antibody 2 is bound to a plate and sample wells from the plate are subjected to various biotinylated peptides under conditions conducive to forming specific antibody-ligand interactions. Samples are then washes to remove excess unbound biotinylated peptide. Streptavidin beads conjugated to peroxidase and then added to the samples to allow biotin-streptavidin complexes to form on peptide bound antibodies. TMBred substrate is then added and samples are measured for colorimetric development using an ELISA plate reader. […] Antibody 5 and Antibody 6 tested by indirect ELISA under the same conditions using the same Tau peptides yielded no specific dose-dependent reactivity toward the Tau peptides tested.

[1] = biological target: T1, Tau in brain lysate samples from AD patients (human, UniProt P10636-8 2-441, limits assumed); assay: Western blot of brain lysates
T1 construct: A mixture of isoforms; The phosphorylation state was not defined by the experiment; also called different length isoforms of Tau in AD samples
Procedure: (§1) In FIG. 26, Western blots were used to assess binding of various antibodies to brain lysate samples from AD patients and Control subjects. Protein ladders were run in lanes 1 and 10. Phosphatase treated pTau loaded in an amount of 0.05 ug was run in lane 2. Full-length Tau (Tau411) loaded in an amount of 0.05 ug was run in lane 3. Lanes 4-6 contain samples from different Control subjects with a dilution factor of 5. Lanes 7-9 contain samples from different AD subjects with a dilution factor of 5.

[2] = biological target: T2, Tau in brain lysate samples from Control subjects (human, UniProt P10636-8 2-441, limits assumed); assay: Western blot of brain lysates
T2 construct: A mixture of isoforms; also called different length isoforms of Tau in control samples
Procedure: as §1

T2 sequence (P10636 other isoform, or with tags, fused parts or gaps limits assumed): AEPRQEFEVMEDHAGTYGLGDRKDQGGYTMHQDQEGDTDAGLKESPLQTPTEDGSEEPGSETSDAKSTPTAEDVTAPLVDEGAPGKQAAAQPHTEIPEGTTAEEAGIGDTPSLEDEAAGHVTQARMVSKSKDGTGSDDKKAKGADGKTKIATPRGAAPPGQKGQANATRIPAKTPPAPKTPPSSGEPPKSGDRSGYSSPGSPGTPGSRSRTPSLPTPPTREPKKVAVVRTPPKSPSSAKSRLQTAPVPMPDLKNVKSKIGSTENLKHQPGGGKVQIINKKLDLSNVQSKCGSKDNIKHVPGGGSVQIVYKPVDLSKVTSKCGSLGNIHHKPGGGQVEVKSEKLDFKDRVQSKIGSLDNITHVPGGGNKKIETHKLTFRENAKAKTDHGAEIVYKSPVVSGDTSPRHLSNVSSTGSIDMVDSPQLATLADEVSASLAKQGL
T1 sequence (P10636 other isoform, or with tags, fused parts or gaps limits assumed): as above

| Binder | EC50 (read off the curve) (Bio-pt655 (phospho T217)) [µg/mL] | EC50 (read off the curve) (Adx-pt655) [µg/mL] | binding result [1] | binding result [2] |
| --- | --- | --- | --- | --- |
| Antibody 2 (antibody, V domains shown, also called 30H10L2) VH: QSVEESGGRLVTPGTPLTLTCTVSGFSLSSYAMIWVRQAPGKGLEWIGFISRSGITYYASWAKGRFTISKTSTTVDLKMTSLTTEDTATYFCAREFGAVGSDYYRDAFNLWGPGTLVTVSS VL: DIVMTQTPASVEAAVGGTVTINCQASESINSWLSWYQQKPGQPPNLLIYRASTLASGVPSRFSGGGSGTEYTLTISDLECADAVTYYCQSYYEEDGIGYAFGGGTEVVVEG | ~0.2 | ~0.4 |  |  |
| Antibody 5 (antibody, V domains shown, also called 62H10L7) VH: QSVEESGGGLVTPGGTLTLTCTVSGFSLSNYAMSWVRQAPGKGLEWIGFISRSGITYYASWAKGRFTISKTSTTVDLKITSPTTEDTAAYFCAREFGAVGSDYYRDALRLWGPGTLVTVSS VL: DIVMTQTPSSVSAAVGGTVTIKCQASQSIGSNLAWYQQKPGQPPKLLIYGASTLESGVPSRFKGSGSGTEYTLTISDLECADAATYYCQSYYEGSDIGYAFGGGTEVVVEG |  |  | no binding (tested: DF 5) | no binding (tested: DF 5) |
| Antibody 6 (antibody, V domains shown, also called 71H1L2) VH: QSLEESGGRLVTPGTPLTLTCTVSGIDLSTHAMTWVRQAPGKGLEWIGVINPSGSAYYATWVNGRFTISKTSTTVDLKITSPTTGDTAKYFCARDYITAGDYYMDAFDPWGPGTLVTVSS VL: DIVMTQTPASVSAAVGGTVTIKCQASQSISNQLSWYQQKSGQPPKLLIYRASTLASGVPSRFKGSGSGTEFTLTISDLECADAATYYCQQGYNRDNVDNLFGGGTEVVVKG |  |  | no binding (tested: DF 5) | no binding (tested: DF 5) |
